Where a chain is given by its changes, count along the chain named.
Experiments:
FBF-2 RBD+CT = molecular target: T1, FBF-2 RBD+CT (Caenorhabditis elegans, UniProt Q09312 164-632); test: EMSA; no LST-1; EMSA: FBF-2 in 20 mM HEPES pH 7.4, 150 mM NaCl, 0.5 mM TCEP mixed 1:1 with 5 nM final RNA in 10 mM HEPES pH 7.4, 0.01% Tween 20, 0.1 mg/ml BSA, 0.1 mg/ml yeast; conditions: protein: recombinant; tags: none (His6-SUMO removed with Ulp1); label: 3'-Cy5
T1 sequence: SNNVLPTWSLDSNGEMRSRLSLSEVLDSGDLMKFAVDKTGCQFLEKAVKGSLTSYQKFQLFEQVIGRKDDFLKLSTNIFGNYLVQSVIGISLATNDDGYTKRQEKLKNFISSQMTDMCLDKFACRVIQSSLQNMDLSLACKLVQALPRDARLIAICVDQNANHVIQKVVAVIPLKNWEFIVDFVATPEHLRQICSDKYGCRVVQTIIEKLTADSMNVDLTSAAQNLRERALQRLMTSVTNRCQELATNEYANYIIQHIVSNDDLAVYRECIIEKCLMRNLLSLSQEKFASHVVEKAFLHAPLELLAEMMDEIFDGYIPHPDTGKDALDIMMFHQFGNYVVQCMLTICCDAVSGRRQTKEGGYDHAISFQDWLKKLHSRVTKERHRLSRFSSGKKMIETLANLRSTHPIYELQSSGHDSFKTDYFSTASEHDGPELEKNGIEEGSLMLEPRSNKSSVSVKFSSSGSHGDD

FBF-2 RBD+CT Loop6A = molecular target: T2, FBF-2 RBD+CT Loop6A (Caenorhabditis elegans, UniProt Q09312 164-632, E592A;D594A;E597A;E599A;E604A;E605A); test: as above; conditions: protein: recombinant; tags: none (His6-SUMO removed with Ulp1); label: 3'-Cy5
T2 sequence: T1 sequence with E429A, D431A, E434A, E436A, E441A, E442A

## AUCAUGUGCCAUAC (ssRNA) [gld-1 FBEa RNA (EMSA)]
FBF-2 RBD+CT
  Kd: 334 ± 61 nM
FBF-2 RBD+CT Loop6A
  Kd: 101 ± 21 nM

From publication PMC10641069, “Intra- and inter-molecular regulation by intrinsically-disordered regions governs PUF protein RNA binding” (Nature Communications, 2023)
